Series [1] deals with VchCAST RNA-guided transposition machinery (E. coli BL21(DE3) host, lacZ target). The series is described as follows: relative integration efficiency (T-RL orientation) vs wild-type transposon end (log2 (normalized fold change)); transposon end mutated: right end (5 bp flank + 75 bp right end); higher = more efficient transposition. In outline: (§1)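 A T7-driven effector plasmid encoding a CRISPR array, tniQ-cas8-cas7-cas6 and tnsA-tnsB-tnsC was co-transformed into E. coli BL21(DE3) together with a pUC57 mini-transposon donor holding barcoded pools of 1549 left-end or 1849 right-end variants. Transformants were plated with 0.1 mM IPTG at 37°C for 18 h. Illumina sequencing of PCR-amplified input plasmids and genomic integration junctions gave barcode abundances, and relative integration efficiency is their output/input fold change, normalised to reference barcodes and log-transformed.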

Series [2] shares this test system. Kind of series: relative integration efficiency (T-LR orientation) vs wild-type transposon end (log2 (normalized fold change)); transposon end mutated: right end (5 bp flank + 75 bp right end); higher = more efficient transposition. In outline:
as §1

± gives the standard deviation of the averaged measurements.

On to “ACATTTGTTGATAGTTGGTATTTTACTATTAATGTGGGTATTTAACTATTAATTCACACCCATAAATTGATATTGCCTCTGATCATAGTCAGACCAACATTGCTACGACCCGTATTCGCACCGACAC”, for which the results for the “relative integration efficiency (log2)” value in series [1] and in series [2] were -6.222 ± 0.043 and -3.485 ± 0.034, respectively.

For the sequence “ACATTTGTTGATAGTTGGTATTTTACTATTAATGTGGGTATTTAACTATTAATTCAGTGGGTATTTAACTATAACGCTCTGATCATAGTCAGACCAACATTGCTACGACCCGTATTCGCACCGACAC”, the “relative integration efficiency (log2)” value in series [1] is -6.63 ± 0.31; in series [2], below -10.

In the case of “ACATTTGTTGATATAATTATCATTTTATGGTTGCAACCATAAAATGATAATTATCACAACCATAAAATGATAATTACTCTGATCATAGTCAGACCAACATTGCTACGACCCGTATTCGCACCGACAC”, the “relative integration efficiency (log2)” value is -3.54 ± 0.15 in series [1] and -4.32 ± 2.7 in series [2].

As for “ACATTTGTTGATATAATTATCATTTTATGGTTGCAACCATAAAATGATAATTATGATAATTATCATTTTATGGTTGCTCTGATCATAGTCAGACCAACATTGCTACGACCCGTATTCGCACCGACAC”, the “relative integration efficiency (log2)” value in series [1] was -2.97 ± 0.69; in series [2], -4.33 ± 0.53.

In the case of “ACATTTGTTGATATAATTATCATTTTATGGTTGTAATTATCATTTTATGGTTGTCATAATTATCATTTTATGGTTGCTCTGATCATAGTCAGACCAACATTGCTACGACCCGTATTCGCACCGACAC”, the results for the “relative integration efficiency (log2)” value in series [1] and in series [2] were -6.26 ± 0.22 and -6.39 ± 2.5, respectively.

On to “ACATTTGTTGATATCAACCATAAAATGATAATTACACCCATAAATTGATAATTATCACACCCATAAATTGATATTGCCTCTGATCATAGTCAGACCAACATTGCTACGACCCGTATTCGCACCGACA”, for which the “relative integration efficiency (log2)” value is -0.0259 ± 0.16 in series [1] and -1.376 ± 0.0096 in series [2].

Turning to “ACATTTGTTGATATGCAACCATAAAATGATAATTACACCCATAAATTGATAATTATCACACCCATAAATTGATATTGCCTCTGATCATAGTCAGACCAACATTGCTACGACCCGTATTCGCACCGAC”, the “relative integration efficiency (log2)” value is -6.537 ± 0.019 in series [1] and -7.72 ± 1.2 in series [2].

Regarding “ACATTTGTTGATATGTTCAACCATAAAATGATAATTACACCCATAAATTGATAATTATCACACCCATAAATTGATATTGCCTCTGATCATAGTCAGACCAACATTGCTACGACCCGTATTCGCACCG”, the “relative integration efficiency (log2)” value in series [1] was -6.34 ± 0.1; in series [2], -7.23 ± 1.7.

Take “ACATTTGTTGATATGTTGACAACCATAAAATGATAATTACACCCATAAATTGATAATTATCACACCCATAAATTGATATTGCCTCTGATCATAGTCAGACCAACATTGCTACGACCCGTATTCGCAC”: the “relative integration efficiency (log2)” value in series [1] was -6.69 ± 0.15; in series [2], -5.78 ± 1.9.

As for “ACATTTGTTGATATGTTGATACAACCATAAAATGATAATTACACCCATAAATTGATAATTATCACACCCATAAATTGATATTGCCTCTGATCATAGTCAGACCAACATTGCTACGACCCGTATTCGC”, the “relative integration efficiency (log2)” value in series [1] is -0.0755 ± 0.058; in series [2], 0.26 ± 0.15.

On to “ACATTTGTTGATATGTTGATCAACCATAAAATGATAATTACACCCATAAATTGATAATTATCACACCCATAAATTGATATTGCCTCTGATCATAGTCAGACCAACATTGCTACGACCCGTATTCGCA”, for which the figures for the “relative integration efficiency (log2)” value in series [1] and in series [2] were -7.04 ± 0.42 and -3.71 ± 0.28, respectively.

As to “ACATTTGTTGATCAAACCATAAAATGATAATTACACCCATAAATTGATAATTATCACACCCATAAATTGATATTGCCTCTGATCATAGTCAGACCAACATTGCTACGACCCGTATTCGCACCGACAC”, the “relative integration efficiency (log2)” value in series [1] was -0.137 ± 0.021; in series [2], -0.874 ± 0.45.

Regarding “ACATTTGTTGATCAACCATAAAATGATAATTACACCCATAAATTGATAATTATCACACCCATAAATTGATATTGCCTCTGATCATAGTCAGACCAACATTGCTACGACCCGTATTCGCACCGACACT”, the figures for the “relative integration efficiency (log2)” value in series [1] and in series [2] were -8.26 ± 0.75 and -4.42 ± 0.092, respectively.

With “ACATTTGTTGATCACCCCATAAAATGATAATTACACCCATAAATTGATAATTATCACACCCATAAATTGATATTGCCTCTGATCATAGTCAGACCAACATTGCTACGACCCGTATTCGCACCGACAC”, the “relative integration efficiency (log2)” value in series [1] is -0.839 ± 0.08; in series [2], -1.51 ± 0.22.

For the sequence “ACATTTGTTGATCCAACCATAAAATGATAATTACACCCATAAATGGATAATTATCACACCCAATTTAACTATAACGCTCTGATCATAGTCAGACCAACATTGCTACGACCCGTATTCGCACCGACAC”, the results for the “relative integration efficiency (log2)” value in series [1] and in series [2] were -1.51 ± 0.15 and 1.15 ± 0.043, respectively.

Turning to “ACATTTGTTGATCCAACCATAAAATGATAATTACACCCATAAATGGATCATTATCACACCCAATTTAACTATAACGCTCTGATCATAGTCAGACCAACATTGCTACGACCCGTATTCGCACCGACAC”, the “relative integration efficiency (log2)” value in series [1] is -1.74 ± 0.32; in series [2], 1.13 ± 0.26.

Regarding “ACATTTGTTGATCCAACCATAAAATGATAATTACACCCATAAATTCATAATTATCACACCCAATTTAACTATAACGCTCTGATCATAGTCAGACCAACATTGCTACGACCCGTATTCGCACCGACAC”, the “relative integration efficiency (log2)” value in series [1] is -2.07 ± 0.2; in series [2] it was 0.916 ± 0.17.

For “ACATTTGTTGATCCAACCATAAAATGATAATTACACCCATAAATTCATCATTATCACACCCAATTTAACTATAACGCTCTGATCATAGTCAGACCAACATTGCTACGACCCGTATTCGCACCGACAC”, the “relative integration efficiency (log2)” value in series [1] is -2.42 ± 0.5; in series [2], 1.23 ± 0.14.

On to “ACATTTGTTGATCCAACCATAAAATGATAATTACACCCATAAATTGATCATTATCACACCCAATTTAACTATAACGCTCTGATCATAGTCAGACCAACATTGCTACGACCCGTATTCGCACCGACAC”, for which the “relative integration efficiency (log2)” value in series [1] is -1.7 ± 0.3; in series [2], 1.98 ± 0.02.

Regarding “ACATTTGTTGATTGAACCATAAAATGATAATTACACCCATAAATTGATAATTATCACACCCATAAATTGATATTGCCTCTGATCATAGTCAGACCAACATTGCTACGACCCGTATTCGCACCGACAC”, the entries for the “relative integration efficiency (log2)” value in series [1] and in series [2] were -0.172 ± 0.032 and -1.4 ± 0.71, respectively.

Turning to “ACATTTGTTGATTGTTCCATAAAATGATAATTACACCCATAAATTGATAATTATCACACCCATAAATTGATATTGCCTCTGATCATAGTCAGACCAACATTGCTACGACCCGTATTCGCACCGACAC”, the “relative integration efficiency (log2)” value is -1.3 ± 0.19 in series [1] and -1.3 ± 0.53 in series [2].

On to “ACATTTGTTGCGACAACCATAAAATGATAATTACACCCATAAATTGATAATTATCACACCCATAAATTGATATTGCCTCTGATCATAGTCAGACCAACATTGCTACGACCCGTATTCGCACCGACAC”, for which the “relative integration efficiency (log2)” value was -0.447 ± 0.038 in series [1] and -1.69 ± 0.07 in series [2].

With “ACATTTGTTGCGCAAACCATAAAATGATAATTACACCCATAAATTGATAATTATCACACCCATAAATTGATATTGCCTCTGATCATAGTCAGACCAACATTGCTACGACCCGTATTCGCACCGACAC”, the “relative integration efficiency (log2)” value in series [1] was -0.839 ± 0.087; in series [2] it was -2.91 ± 0.35.

For “ACATTTGTTGTAACAACCATAAAATGATAATTACACCCATAAATTGATAATTATCACACCCATAAATTGATATTGCCTCTGATCATAGTCAGACCAACATTGCTACGACCCGTATTCGCACCGACAC”, the “relative integration efficiency (log2)” value is -0.2 ± 0.038 in series [1] and -1.09 ± 0.54 in series [2].

“ACATTTGTTGTATGAACCATAAAATGATAATTACACCCATAAATTGATAATTATCACACCCATAAATTGATATTGCCTCTGATCATAGTCAGACCAACATTGCTACGACCCGTATTCGCACCGACAC”: the entries for the “relative integration efficiency (log2)” value in series [1] and in series [2] were -0.782 ± 0.022 and -2.29 ± 0.23, respectively.

Regarding “ACATTTGTTTATACAACCATAAAATGATAATTACACCCATAAATGGATAATTATCACACCCAATTTAACTATAACGCTCTGATCATAGTCAGACCAACATTGCTACGACCCGTATTCGCACCGACAC”, the “relative integration efficiency (log2)” value is -1.86 ± 0.27 in series [1] and -0.232 ± 0.5 in series [2].

As for “ACATTTGTTTATACAACCATAAAATGATAATTACACCCATAAATGGATTATTATCACACCCAATTTAACTATAACGCTCTGATCATAGTCAGACCAACATTGCTACGACCCGTATTCGCACCGACAC”, the “relative integration efficiency (log2)” value in series [1] is -2.39 ± 0.61; in series [2], -1.01 ± 0.12.

“ACATTTGTTTATACAACCATAAAATGATAATTACACCCATAAATTCATAATTATCACACCCAATTTAACTATAACGCTCTGATCATAGTCAGACCAACATTGCTACGACCCGTATTCGCACCGACAC”: the “relative integration efficiency (log2)” value in series [1] was -2.45 ± 0.3; in series [2], -0.939 ± 0.036.

On to “ACATTTGTTTATACAACCATAAAATGATAATTACACCCATAAATTCATTATTATCACACCCAATTTAACTATAACGCTCTGATCATAGTCAGACCAACATTGCTACGACCCGTATTCGCACCGACAC”, for which the “relative integration efficiency (log2)” value was -3.21 ± 0.16 in series [1] and -0.961 ± 0.16 in series [2].

Take “ACATTTGTTTATACAACCATAAAATGATAATTACACCCATAAATTTATAATTATCACACCCAATTTAACTATAACGCTCTGATCATAGTCAGACCAACATTGCTACGACCCGTATTCGCACCGACAC”: the “relative integration efficiency (log2)” value in series [1] is -1.89 ± 0.13; in series [2], 0.00132 ± 0.14.

With “ACATTTGTTTATACAACCATAAAATGATAATTACACCCATAAATTTATTATTATCACACCCAATTTAACTATAACGCTCTGATCATAGTCAGACCAACATTGCTACGACCCGTATTCGCACCGACAC”, the “relative integration efficiency (log2)” value was -2.66 ± 0.6 in series [1] and -0.334 ± 0.058 in series [2].

On to “ACATTTGTTTCGCCAACCATAAAATGATAATTACACCCATAAATTGATAATTATCACACCCATAAATTGATATTGCCTCTGATCATAGTCAGACCAACATTGCTACGACCCGTATTCGCACCGACAC”, for which the “relative integration efficiency (log2)” value in series [1] was -1.72 ± 0.26; in series [2] it was -3.75 ± 0.98.

The values above are taken from the supplement of paper PMC10201428.
